# Laboratory results reported in patent publication US20190367605A1 (AstraZeneca / MedImmune, published 2019).
# Where a chain is given by its changes, count along the chain named.
# B1: anti-ASCT2 17C10 classically conjugated to tubulysin AZ1508 (antibody, human IgG1, V domains shown)
# VH: QVQLQQWGAGLLKPSETLSLTCAVYGGSFSGYYWSWIRQPPGKGLEWIGEIHHSGGANYNPSLKSRVTISVDTSKNQFSLKLTSVTAADTAVYYCARGQGKNWHYDYFDYWGQGTLVTVSS
# VL: DIQMTQSPSTLSTSVGDRVTLTCRASQSIRSWLAWYQQNPGKAPKLLIYKASILKIGVPSRFSGSGSGTDFTLTITSLQPDDFATYYCQQYYSYSRTFGQGTKVEIK
# modifications: tubulysin AZ1508 conjugated classically (native cysteine residues, thiol-maleimide linkage); positions not given
# B2: anti-ASCT2 antibody 1e8 conjugated to tubulysin AZ1508 (Example 4) (antibody, V domains shown)
# VH: B1 VH with R38P, L45V, H52N, G56S, A57T, V71S, H104N
# VL: B1 VL with T13A, N39K, I53S, I56S, T76S, Y94F
# modifications: tubulysin AZ1508 conjugated; mode and site of conjugation not stated for these experiments
# notes: Antibody-drug conjugate; also called 1e8 conjugated to tubulysin 1508
# B3: anti-ASCT2 1E8 classically conjugated to tubulysin AZ1508 (antibody, human IgG1, V domains shown)
# VH: B1 VH with R38P, L45V, H52N, G56S, A57T, V71S, H104N
# VL: B1 VL with T13A, N39K, I53S, I56S, T76S, Y94F
# modifications: tubulysin AZ1508 conjugated classically (native cysteine residues, thiol-maleimide linkage); positions not given
# B4: anti-ASCT2 antibody 17c10 conjugated to tubulysin AZ1508 (17c10-AZ1508, Example 4) (antibody, V domains shown)
# VH: B1 VH
# VL: B1 VL
# modifications: tubulysin AZ1508 conjugated; mode and site of conjugation not stated for these experiments
# notes: Antibody-drug conjugate; also called 17c10-ADC; ASCT2-ADC
# B5: anti-ASCT2 antibody 1e8 (original) (antibody, V domains shown)
# VH: B1 VH with R38P, L45V, H52N, G56S, A57T, V71S, H104N
# VL: B1 VL with T13A, N39K, I53S, I56S, T76S, Y94F
# notes: also called ASCT2 mAb 1e8
# B6: anti-ASCT2 antibody 17c10 (original, non-germlined, parental) (antibody, V domains shown)
# VH: B1 VH
# VL: B1 VL
# notes: also called 17c10 parental antibody; ASCT2 mAb 17c10
# B7: germlined 17c10 antibody (antibody, V domains shown)
# VH: B1 VH with T83S
# VL: B1 VL with T13A, L21I, N39K, D70E, T76S
# notes: also called 17c10 germlined antibody
# Key:
# [1] = molecular target: T1, human ASCT2 (system ASC amino acid transporter 2, SLC1A5) (human, UniProt Q15758 1-541); experiment: cell-based or functional assay
# T1 sequence (looked up): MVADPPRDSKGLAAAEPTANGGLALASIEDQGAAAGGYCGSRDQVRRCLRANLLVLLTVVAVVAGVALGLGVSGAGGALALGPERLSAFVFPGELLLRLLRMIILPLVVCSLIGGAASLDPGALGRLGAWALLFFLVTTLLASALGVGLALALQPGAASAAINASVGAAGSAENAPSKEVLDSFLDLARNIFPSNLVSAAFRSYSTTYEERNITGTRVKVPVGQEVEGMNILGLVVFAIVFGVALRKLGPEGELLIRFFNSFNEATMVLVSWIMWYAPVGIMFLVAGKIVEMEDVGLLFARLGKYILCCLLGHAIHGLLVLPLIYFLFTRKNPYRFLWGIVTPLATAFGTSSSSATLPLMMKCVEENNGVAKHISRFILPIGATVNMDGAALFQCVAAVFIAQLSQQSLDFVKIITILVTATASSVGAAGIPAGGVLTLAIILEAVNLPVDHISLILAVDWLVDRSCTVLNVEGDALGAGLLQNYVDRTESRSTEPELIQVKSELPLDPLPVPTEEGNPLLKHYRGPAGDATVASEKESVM
# [2] = molecular target: T1, human ASCT2 (system ASC amino acid …); experiment: binding to CHOK1 cells stably expressing human ASCT2; clones conjugated to tubulysin AZ1508 per paragraph 353
# cynomolgus monkey ASCT2 [3] = molecular target: T2, cynomolgus monkey ASCT2 (cynomolgus monkey (Macaca fascicularis), UniProt G7PXZ3 1-542); experiment: binding to CHOK1 cells stably expressing cyno ASCT2; clones conjugated to tubulysin AZ1508 per paragraph 353
# T2 construct: whole, on cells; Present on stably transfected CHOK1 cells or endogenously on the cyno cell line CynoMK1; also called cyno ASCT2; CynoASCT2
# T2 sequence: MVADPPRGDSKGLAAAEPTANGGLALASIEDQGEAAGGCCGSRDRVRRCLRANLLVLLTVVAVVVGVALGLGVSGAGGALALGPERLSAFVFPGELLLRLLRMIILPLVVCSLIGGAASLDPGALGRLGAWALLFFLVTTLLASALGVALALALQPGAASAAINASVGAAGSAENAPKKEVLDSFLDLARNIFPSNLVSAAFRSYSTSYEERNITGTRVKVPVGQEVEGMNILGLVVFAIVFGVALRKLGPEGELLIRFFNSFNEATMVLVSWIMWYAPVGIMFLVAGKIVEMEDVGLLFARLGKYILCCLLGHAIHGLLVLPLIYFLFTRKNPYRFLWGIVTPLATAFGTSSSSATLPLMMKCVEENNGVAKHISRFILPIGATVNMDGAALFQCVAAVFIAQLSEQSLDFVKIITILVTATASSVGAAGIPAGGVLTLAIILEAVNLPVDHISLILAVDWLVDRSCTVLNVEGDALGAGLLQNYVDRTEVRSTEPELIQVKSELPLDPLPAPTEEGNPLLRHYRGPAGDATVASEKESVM
# cynomolgus monkey ASCT2 [4] = molecular target: T2, cynomolgus monkey ASCT2; experiment: cell-based or functional assay
# [5] = molecular target: T1, human ASCT2 (system ASC amino acid …); experiment: cell-based or functional assay; remark: listed apart in the source
# [6] = molecular target: T1, human ASCT2 (system ASC amino acid …); experiment: cell-based or functional assay; remark: listed apart in the source
# cynomolgus monkey ASCT2 [7] = molecular target: T2, cynomolgus monkey ASCT2; experiment: flow cytometry, titration of fluorophore-labelled antibody on cyno cell line Cyno MK1
# Procedure: (§1) Human, cynomolgous monkey, and CHO-derived cell lines expressing ASCT2 were utilized to assessed binding affinity and cross reactivity of ASCT2-specific antibodies. Apparent affinities were measured by titrating fluorophore labeled antibodies.
# (§2) Results for human cancer cell line Ca127 are shown in FIG. 6A; results for human cancer cell line FaDu are shown in FIG. 6B; results for human cancer cell line SSC15 are shown in FIG. 6C; results for human cancer cell line WiDr are shown in FIG. 6D; results for CHOK1 cells stably expressing human ASCT2 are shown in FIG. 6E; results for CHOK1 cells stably expressing cyno ASCT2 are shown in FIG. 6F); results for cyno cancer cell line CynoMK1 are shown in FIG. 6G; and results for mock transfected CHOK1 cells are shown in FIG. 6H.
# [8] = molecular target: T1, human ASCT2 (system ASC amino acid …); experiment: flow cytometry, titration of fluorophore-labelled antibody on CHOK1 cells stably expressing human ASCT2
# Procedure: as §1, §2
# [9] = molecular target: T1, human ASCT2 (system ASC amino acid …); experiment: flow cytometry, titration of fluorophore-labelled antibody on Cal27 cells
# Procedure: as §1, §2
# cynomolgus monkey ASCT2 [10] = molecular target: T2, cynomolgus monkey ASCT2; experiment: flow cytometry, titration of fluorophore-labelled antibody on CHOK1 cells stably expressing cyno ASCT2
# Procedure: as §1, §2
# [11] = molecular target: T1, human ASCT2 (system ASC amino acid …); experiment: flow cytometry, titration of fluorophore-labelled antibody on WiDr cells
# Procedure: as §1, §2
# [12] = molecular target: T1, human ASCT2 (system ASC amino acid …); experiment: flow cytometry, titration of fluorophore-labelled antibody on SSC15 cells
# Procedure: as §1, §2
# [13] = molecular target: T1, human ASCT2 (system ASC amino acid …); experiment: flow cytometry, titration of fluorophore-labelled antibody on FaDu cells
# Procedure: as §1, §2
# ASCT1 (SLC1A4) = molecular target: T3, ASCT1 (SLC1A4) (human, UniProt P43007 1-532); experiment: flow cytometry on SKMEL-2 cells after shRNA knockdown of ASCT1 (binding not ablated)
# T3 construct: whole, on cells; also called ASC transporter 1; human ASCT1
# T3 sequence (looked up): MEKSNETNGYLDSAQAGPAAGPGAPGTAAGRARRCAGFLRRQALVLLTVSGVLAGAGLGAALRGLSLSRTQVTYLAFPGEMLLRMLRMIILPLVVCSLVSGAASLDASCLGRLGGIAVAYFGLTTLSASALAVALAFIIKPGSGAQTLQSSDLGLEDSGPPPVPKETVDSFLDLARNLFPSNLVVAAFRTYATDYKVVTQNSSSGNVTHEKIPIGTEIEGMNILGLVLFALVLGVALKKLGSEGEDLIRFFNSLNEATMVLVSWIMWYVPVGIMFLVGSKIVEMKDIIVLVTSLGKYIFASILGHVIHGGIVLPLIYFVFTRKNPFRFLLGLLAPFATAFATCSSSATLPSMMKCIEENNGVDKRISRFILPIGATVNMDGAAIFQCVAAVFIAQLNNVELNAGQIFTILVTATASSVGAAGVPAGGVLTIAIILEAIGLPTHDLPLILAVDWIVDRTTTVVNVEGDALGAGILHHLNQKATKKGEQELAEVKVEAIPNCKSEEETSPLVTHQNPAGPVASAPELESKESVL
# [14] = molecular target: T1, human ASCT2 (system ASC amino acid …); experiment: flow cytometry on WiDr cells and CHO cells expressing HuASCT2
# Source text: The amino acid sequences of the VH and VL domains for 17c10 were aligned to the known human germline sequences in the VBASE database, and the closest germline was identified by sequence similarity. For the VH domain, this was IgVh4-34*01; for the VL domain, it was IgKv1-5*03. For 17c10, the germlining process involved reverting 1 framework residue in the VH domain and 5 residues in the VL domain. In the VH domain, the reversion mutation was at Kabat position 82a, where threonine (T) was reverted to serine (S). In the VL domain, the mutations were at Kabat position 13, 21, 39, 70, and 76 where at Kabat position 13 threonine (T) was reverted to alanine (A); at Kabat position 21 leucine (L) was reverted to isoleucine (I); at Kabat position 39 Asparagine (N) was reverted to lysine (K); at Kabat position 70 aspartate (D) was reverted to glutamate (E), and at Kabat position 76 threonine (T) was reverted to serine (S). These changes were made by synthesizing VH and VL domains with these mutations and replacing existing VH and VL using restriction digestion and ligation. Both the germlined and original (non-germlined) 17c10 were expressed as IgGs, and their affinity to multiple ASCT2-expressing cell lines was assessed by flow cytometry.
binder,measurement,setting,value
B1,"IC50 (ng/ml), ADC-mediated cytotoxic killing, SW48 cells, CellTiter-Glo, 72 h",[1],46 ng/mL
B2,EC50,[2],8.1 nM
same,EC50,cynomolgus monkey ASCT2 [3],28.4 nM
same,"Cytotoxicity IC50 (ng/ml), CHOK1 cells stably expressing cyno ASCT2",cynomolgus monkey ASCT2 [4],140 ng/mL
same,"Cytotoxicity IC50 (ng/ml), CHOK1 cells stably expressing human ASCT2",[5],20.7 ng/mL
B3,"IC50 (ng/ml), ADC-mediated cytotoxic killing, SW48 cells, CellTiter-Glo, 72 h",[1],34.8 ng/mL
B4,EC50,[2],8.6 nM
same,EC50,cynomolgus monkey ASCT2 [3],9.6 nM
same,"IC50 (ng/ml), cytotoxic killing of SKMEL-2 cells with ASCT1-shRNA1",[6],7.59 ng/mL
same,"IC50 (ng/ml), cytotoxic killing of SKMEL-2 cells with ASCT1-shRNA2",[6],4.96 ng/mL
same,"IC50 (ng/ml), cytotoxic killing of SKMEL-2 cells with ASCT2-shRNA",[6],205 ng/mL
same,"IC50 (ng/ml), cytotoxic killing of SKMEL-2 cells with NTshRNA",[6],14.3 ng/mL
same,"Cytotoxicity IC50 (ng/ml), CHOK1 cells stably expressing cyno ASCT2",cynomolgus monkey ASCT2 [4],8.59 ng/mL
same,"Cytotoxicity IC50 (ng/ml), CHOK1 cells stably expressing human ASCT2",[5],5.53 ng/mL
B5,EC50,cynomolgus monkey ASCT2 [7],14.8 nM
same,EC50,[8],8.1 nM
same,EC50,[9],13 nM
same,EC50,cynomolgus monkey ASCT2 [10],28.4 nM
same,EC50,[11],5.8 nM
same,EC50,[12],8.8 nM
same,EC50,[13],6.8 nM
B6,EC50,cynomolgus monkey ASCT2 [7],6.7 nM
same,EC50,[8],8.6 nM
same,EC50,[9],2.8 nM
same,EC50,cynomolgus monkey ASCT2 [10],9.6 nM
same,EC50,[11],7 nM
same,EC50,[12],3.6 nM
same,binding result,ASCT1 (SLC1A4),no binding
same,EC50,[13],3.8 nM
B7,binding result,[14],binds
